Data: FireProtDB (doi:10.1110/ps.0237703)

B1: A82N, O00095 (parent)
chain: MKFLQVLPALIPAALAQTSCDQWATFTGNGYTVSNNLWGASAGSGFGCVTAVSLSGGASWHADWQWSGGQNNVKSYQNSQIAIPQKRTVNSISSMPTTASWSYSGSNIRANVAYDLFTAANPNHVTYSGDYELMIWLGKYGDIGPIGSSQGTVNVGGQSWTLYYGYNGAMQVYSFVAQTNTTNYSGDVKNFFNYLRDNKGYNAAGQYVLSYQFGTEPFTGSGTLNVASWTASIN

Variants of: B1
Details: Hypocrea jecorina; pH 8; Thermal; CD; Bis-Tris propane ammonium acetate 0.05 M 0.05 M; reversible: No; structure 1H8V; whole UniProt chain shown

Row | Variant | Tm | change of melting temperature, mutant - wild type (higher = more stable)
1 | A82N | 54.5 °C | 0.1 °C
2 | N107D | 54.9 °C | 0.5 °C
3 | T179S | 54.7 °C | 0.3 °C
4 | A51S | 50.4 °C | -4 °C
5 | A51V | 62.1 °C | 7.7 °C
6 | W23Y | 53.4 °C | -1 °C
7 | G57A | 56.9 °C | 2.5 °C
8 | S159T | 54.9 °C | 0.5 °C
9 | S79V | 53.6 °C | -0.8 °C
10 | S55N | 54.9 °C | 0.5 °C
11 | S93G | 54.5 °C | 0.1 °C
12 | T27S T32I | 55.5 °C | 1.1 °C
13 | N183S | 54.6 °C | 0.2 °C
14 | A204G | 54.9 °C | 0.5 °C
